Test results from the DeepSol protein solubility set.

Assay: soluble on expression in E. coli; label from the status in PepcDB or PDB records

**Q.** For “GLPRHSAVMERLRRRIELCRRHHSTCEARYEAVSPERLELERQHTFALHQRCIQAKAKRAGKH”, which “soluble on expression in E. coli” value is on record?
**A.** soluble

**Q.** With “GLVAPGYKMATVAVDHLLGNTESKFEGADMSAKLKLLGVKVGSIGDANGRTEGCKSYVYQNEEQEVYKRLIVSEDNKKLLGAVLVGDTSDYGDLLQLMLNEIDLPEHPDALILPAHAGAEKPALGADALPESAVICSCFDVTKGKIAQAVADGHHTLGDIK” as the sequence, how does the “soluble on expression in E. coli” value read?
**A.** not soluble

**Q.** Which “soluble on expression in E. coli” value does the source give for “GMAQAQTQGQEEEQKKKILIVVTHGPEDLDRTYAPLFMASISASMEYETSVFFMIKGPKLLDKKWQEEERKKGGNPFIHFFDMAKENGVKMYVCVQSLKDMCHMKEDDVVEGIELVGGSTLIDLTLEADRTLFF” here?
**A.** soluble

**Q.** With “GMATEKYHEILKKYFLSFETGDFSQVQFSCNLEFLSPISGNTLKGTEEVIPFLKGVTTRVAEVNIMSTTVEYPRASGVWQMRTTKGTLYTLHNFFRLDEEGIVYVWPMFDPKAVMENPDALIQWLTGKDY” as the sequence, how does the “soluble on expression in E. coli” value read?
**A.** soluble

**Q.** Which “soluble on expression in E. coli” value does the source give for “GMDIMLNTADISAAAILLPVEGAQLSELRQIPAEGGPVLHMLRLDSPQFSQFGEIYFSEVLPRRVKAWKRHSLMTQLFAVPVGCIHVVLYDGREKSPTSGRLAQVTLGRPDNYRLLRIPPQVWYGFAATGDTPALVANCTDIPHRQGESERAPQDAPFIPFSWAGADLSGTPVM” here?
**A.** soluble

**Q.** Which “soluble on expression in E. coli” value does the source give for “GMDVFSEYLAGIADPFHRERTEEVLTWIKNKYPNLHTEIKWNQPMFTDHGTFIIGFSVSKKHLAVAPEKVTIAHVEDDIVKAGYDYTEQLIRIPWNGPVDYTLLEKMIEFNILDKADCSTFWRK” here?
**A.** soluble

**Q.** With “GMEPIMRNPEDALLDSWHQNAQAWIDAVRHGAIESRRQVTDQAILLAILGRQPERVLDLGCGEGWLLRALADRGIEAVGVDGDRTLVDAARAAGAGEVHLASYAQLAEAKVPVGKDYDLICANFALLHQDIIELLSAMRTLLVPGGALVIQTLHPWSVADGDYQDGWREESFAGFAGDWQPMPWYFRTLASWLNALDMAGLRLVSLQEPQHPQSAVPQSLLMVAERH” as the sequence, how does the “soluble on expression in E. coli” value read?
**A.** soluble

**Q.** Which “soluble on expression in E. coli” value does the source give for “GMHFSKEHINALETRTRAHFINSLSGFKSANLIGTQDRQGNTNLSIVSSVIHLGANPPLMGMIIRPHSVPRHTFENIMQTGLYTINHVNQSIYEQAHQTSARYDKDESEFEATGLTPEYLSDFCAPFVKESRLKYSVKLVEHQHLAINGTEFVIGEIVDVYVDDNAVQTDGFIDLQAIDTVAISGLDCYYTGDKLARLPYAKK” here?
**A.** soluble

**Q.** With “GMNKEVDLSVSCLGKVKELKYDVIILPWGATEPHNLHLPYLTDCILPHDIAVEAAELALSRSGVRCMVMPPVPFGAHNPGQRELPFCIHTRYATQQAILEDIVSSLHVQGFRKLLILSGHGGNNFKGMIRDLAFEYPDFLIAAANWFEVVSPKGYFEAEIDDHAGESETSVMMHYHPELVNLAEAGDGESKPFAIASLNEKVAWVPRHWDKATVDSGVGNPKKATAEKGERYVKPIVEKLAGLFEEMAQHDLYE” as the sequence, how does the “soluble on expression in E. coli” value read?
**A.** soluble

**Q.** Which “soluble on expression in E. coli” value does the source give for “GMNLANIVQRGWEALGAGDFDTLVTDYVEKMIFIMPGQADVLKGRQAFRSALDNLGEILPPGFEITGLRQLEGENEIVSIVEWKSDKMIASQLSVLFKFEGDQIYEERWFVDTEQWKSVF” here?
**A.** soluble

**Q.** For “GMNLTELMERIPHLREILNIVREAFKDYDDPAHDISHTFRVMENASEIASREKCDLQKAIIAALLHDIKRPHEALTGVDHAESGAEYASGLLPTMGFDISFVAEVSKAIRSHRYSGGLTPTSLTGKILQDADRLDAIGAVAIARVFSYSGKTGTPLHSLQFSPRSSYSGNSRSSINHFHEKILKIRPETFWTETARKMAEDRYSFVVEFVQRFLAEWGQI”, which “soluble on expression in E. coli” value is on record?
**A.** soluble

**Q.** For “GMNTLLKQLKPYPFARLHEAMQGISAPEGMEAVPLHIGEPKHPTPKVITDALTASLHELEKYPLTAGLPELRQACANWLKRRYDGLTVDADNEILPVLGSREALFSFVQTVLNPVSDGIKPAIVSPNPFYQIYEGATLLGGGEIHFANCPAPSFNPDWRSISEEVWKRTKLVFVCSPNNPSGSVLDLDGWKEVFDLQDKYGFIIASDECYSEIYFDGNKPLGCLQAAAQLGRSRQKLLMFTSLSKRSNVPGLRSGFVAGDAELLKNFLLYRTYHGSAMSIPVQRASIAAWDDEQHVIDNRRLYQEKFERVIPILQQVFDVKLPDASFYIWLKVPDGDDLAFARNLWQKAAIQVLPGRFLARDTEQGNPGEGYVRIALVADVATCVKAAEDIVSLYR”, which “soluble on expression in E. coli” value is on record?
**A.** soluble
